According to the supplement of paper PMC9170038:

Tested on: MS2 coat protein
Test: apparent KD of MS2 coat protein; designed switch direction (-1 OFF switch, 1 ON switch): -1; higher = weaker reporter binding
Summary of the method: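 Designed RNA switches sharing common flanks were transcribed on Illumina chips by stalled E. coli RNA polymerase. They were titrated with SNAP-549-labelled MS2 coat protein, from 0.7 or 1.5 nM doubling to 3 µM, in Tris-HCl pH 7.5 buffer with KCl, MgCl2, BSA, DTT, tRNA and Tween-20. Titrations ran without input, with 200 uM small-molecule ligand, or with an oligonucleotide input. The apparent KD of each design is the median over its clusters, after curve-fitting of normalised cluster fluorescence.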

[1] = input ligand: microRNA oligo, concentration not stated
[2] = Eterna round: R95, input ligand: microRNA oligo, concentration not stated

GCUCGCGGGCAAGGAUAUCCCACGCUGUUCUGGCCCGUGUCUGUUACAUGAGGAUCACCCAUGUGGGAGAAGGUGCACCAGGGC [Design 45] (Eterna round: R96, puzzle: Exclusion NG 2)
apparent KD of MS2 coat protein (input ligand: FMN 200 uM): 115 nM | apparent KD of MS2 coat protein [1]: 26.8 nM | apparent KD of MS2 coat protein (input ligand: none): 44.1 nM

GUCACAUGGACAUAGGAUCACAUGAGGAUCACCCAUGUGACUAACAAGCUUUUUGUUCGUCUUAUGUCCAUGUGAAU [Stov1/15-B1] (Eterna round: R97, puzzle: Sensor, turn-off variant 1)
apparent KD of MS2 coat protein (input ligand: FMN 200 uM): 13.7 nM | apparent KD of MS2 coat protein (input ligand: none): 12 nM

GGGUAGUUAGGAUAUCAGACUAGCUGCUCAACAGCAGCAGCUGAGAAGGGACUUGAGGAUCACCCAAGUGGAAG [Ceisis] (Eterna round: R97, puzzle: Exclusion 4)
apparent KD of MS2 coat protein (input ligand: FMN 200 uM): 64.9 nM | apparent KD of MS2 coat protein (input ligand: none): 70.1 nM

GUCCUGGAUUAUCACAAGCACAUGAGGAUCACCCAUGUCAUGGGUGGAUCCCUAAAUGGGUAUUCUGCUCGUCUUAU [Cac Sensor turn off v1 sub11] (Eterna round: R97, puzzle: Sensor, turn-off variant 1)
apparent KD of MS2 coat protein (input ligand: FMN 200 uM): 417 nM

UACUUCCGAGGAUAUACAUGAGGAUCACCCAUGUGCUUCAGCAUUUUUUGAUGCAUGGGUAGAAGGCGGUAGUU [LRO-Excl3-17] (puzzle: Exclusion 3)
apparent KD of MS2 coat protein [2]: 299 nM

GAUUGAGAGCAGGAUAUAUUCCUGAUGUAUGAAGUAGAAGGGCUCACAUGAGGAUCACCCAUGUGAUCCUGAAA [Mat - Exclusion 6 - Eli Mod - D3] (Eterna round: R97, puzzle: Exclusion 6)
apparent KD of MS2 coat protein (input ligand: FMN 200 uM): 13.8 nM | apparent KD of MS2 coat protein (input ligand: none): 14 nM

UAAGUUGUGGUAGGAUAUACUUUAAAUUUCUCUAUCCAUACAUGAGGAUCACCCAUGUUUACAUUGUAGAAGGACCUUUUUGUU [JR_ExcNG2_Sub058] (Eterna round: R96, puzzle: Exclusion NG 2)
apparent KD of MS2 coat protein [1]: 19.7 nM

AGUCCUGGAGUUAGGAUAUGAAGUAUCACUGCACUUCAGAAGGGACUUGAGGAUCACCCAAGUAGCCGUGAGGG [salish99_bmod_ex4_r4_003] (Eterna round: R97, puzzle: Brourd's mod of Exclusion 4)
apparent KD of MS2 coat protein (input ligand: FMN 200 uM): 108 nM | apparent KD of MS2 coat protein (input ligand: none): 56.7 nM

UCUCCCACUCGAGGAUAUCCAUAGAGCAACUGAGGAGAAGGCGAGUGUCCAAAACAUGAGGAUCACCCAUGUGACCUCCCGAAC [Eredgein] (Eterna round: R96, puzzle: Exclusion NG 1)
apparent KD of MS2 coat protein (input ligand: FMN 200 uM): 101 nM | apparent KD of MS2 coat protein [1]: 37.5 nM | apparent KD of MS2 coat protein (input ligand: none): 39.6 nM

AGGUGUAGAGGAUAUCUAUACUCCCACAUGAGGAUCACCCAUGUCCUGGUCACCAAGGACGGAGAAGGCUACACCA [Omei Ex5 D22] (Eterna round: R97, puzzle: Exclusion 5)
apparent KD of MS2 coat protein (input ligand: FMN 200 uM): 130 nM | apparent KD of MS2 coat protein (input ligand: none): 68.3 nM

UUUCCCUGGCAAGGAUAUCCUGUGCGGUUCCGGCUCGUGUCUGUUACAUGAGGAUCACCCAUGUGGGAGAAGGUGCCUGUGGUU [Design 90] (Eterna round: R96, puzzle: Exclusion NG 2)
apparent KD of MS2 coat protein (input ligand: FMN 200 uM): 390 nM | apparent KD of MS2 coat protein [1]: 173 nM | apparent KD of MS2 coat protein (input ligand: none): 220 nM

UGAGUGCUGCGAGGAUAUACAUGAGGAUCACCCAUGUAAAUGUGUGAGGCUUUGCCUCACACAAUGUAGAAGGCGCAGUACUCU [JL ENG2 1.01] (Eterna round: R96, puzzle: Exclusion NG 2)
apparent KD of MS2 coat protein [1]: 9.17 nM

GUACUGAAGCUUUGCUUUAGUCGUACAUGAGGAUCACCCAUGUAGGAUAUGGUAGGCUUUGCUUACUAGAAGGACAGAGUGAUC [JL EXNG3 1.26] (Eterna round: R96, puzzle: Exclusion NG 3)
apparent KD of MS2 coat protein (input ligand: FMN 200 uM): 33.1 nM | apparent KD of MS2 coat protein [1]: 139 nM | apparent KD of MS2 coat protein (input ligand: none): 75.7 nM

GCUGAUCGGCUAGGAUAUACAUUGAUCCUAGGAGGCUAAGCCUCAAAGACAUGAGGAUCACCCAUGUAGAAGGAGCAGCAGUAA [Armaonve] (Eterna round: R96, puzzle: Exclusion NG 2)
apparent KD of MS2 coat protein (input ligand: FMN 200 uM): 103 nM | apparent KD of MS2 coat protein [1]: 23.3 nM | apparent KD of MS2 coat protein (input ligand: none): 39.4 nM

UUUACAAGCUUUUGAUCCCACAUGAGGAUCACCCAUGUUGCUGCCGGUGACGGUAGCAUAACAAAUGCUCGUCUUAU [JL TOV1 3.55] (Eterna round: R97, puzzle: Sensor, turn-off variant 1)
apparent KD of MS2 coat protein (input ligand: FMN 200 uM): 846 nM | apparent KD of MS2 coat protein (input ligand: none): 1160 nM

AUGGUAUUAGGAUAUACAUGAGGAUCACCCAUGUGGCAUCAUGCGGUGCCGACCUACUGUAGAAGGAGUGUAAA [Eternabot (L1) Solution 64] (Eterna round: R97, puzzle: Exclusion 3)
apparent KD of MS2 coat protein (input ligand: FMN 200 uM): 51.3 nM | apparent KD of MS2 coat protein (input ligand: none): 59 nM

UAUUUGUGAGGAUAUGAGUCGUAGAACAAUAGUACUACGUCUCAGAAGGCACAUGAGGAUCACCCAUGUACCUC [Fiskers Ex 4 Super Stable 44 mod 30] (puzzle: Exclusion 4)
apparent KD of MS2 coat protein [2]: 16.9 nM

CGGCAAUCCUAGGAUAUGCUAGACGAUAGUCUAGCAGAAGGAGGAACAUGAGGAUCACCCAUGUGUCCUAGCCG [Mat - Exclusion 6 - Eli Mod - D14] (Eterna round: R97, puzzle: Exclusion 6)
apparent KD of MS2 coat protein (input ligand: FMN 200 uM): 17.8 nM | apparent KD of MS2 coat protein (input ligand: none): 14.4 nM

AAUAAUUGUGACUUGGGCGACAUGAGGAUCACCCAUGUUACAAGCUUGUUGCUCGUCUUAUAAUUAACCCAUGUCAC [LRO Sensor-off var1-23 mod of Stov1-13-A1 by Brourd] (Eterna round: R97, puzzle: Sensor, turn-off variant 1)
apparent KD of MS2 coat protein (input ligand: FMN 200 uM): 15.8 nM | apparent KD of MS2 coat protein (input ligand: none): 18.4 nM

CUCGUGUAAGGAUAUGCGAGCCGCGGAAAUACACCGCGGAGGUAGAAGGUACAUGAGGAUCACCCAUGUAAAAC [Edisora] (puzzle: Exclusion 4)
apparent KD of MS2 coat protein [2]: 26.6 nM

GGUGGACAUGAGGAUCACCCAUGUGAGGAUAUCGGCCGGCUCGUGGUGGCUGGCUUCUCGAGAAGGCGCAUAGU [Exclusion 1 V75] (puzzle: Exclusion 1)
apparent KD of MS2 coat protein [2]: 50.6 nM

GAUUAUGCGAGCUUUAGGGACAUGAGGAUCACCCAUGUUCGUCUUAUUAGUCUGGAUACACUGACAUACCUAAAUCU [JMF 59] (puzzle: Sensor v3, turn-off variant 1)
apparent KD of MS2 coat protein (Eterna round: R95, input ligand: FMN 200 uM): 14.8 nM | apparent KD of MS2 coat protein [2]: 20.9 nM | apparent KD of MS2 coat protein (Eterna round: R95, input ligand: none): 16.4 nM

UUUAUUUUGCAAGGAUAUGUUUAAUUUUAGUUUCCUUACACAUGAGGAUCACCCAUGUUAUACUUACAGAAGGUGCAUAAUUUU [JR_ExcNG2_Sub038] (Eterna round: R96, puzzle: Exclusion NG 2)
apparent KD of MS2 coat protein [1]: 132 nM

AUUCUCUCGGUGAGGAUAUGAGUAACGACGGCAGAUUAGAAGGUACAUGAGGAUCACCCAUGUGUGUUUGGGAU [Eternabot (L1) Solution 75] (Eterna round: R97, puzzle: Brourd's mod of Exclusion 4)
apparent KD of MS2 coat protein (input ligand: FMN 200 uM): 41.7 nM | apparent KD of MS2 coat protein (input ligand: none): 47.5 nM

AGAUGUAGAUACCGAUCCUACAUGAGGAUCACCCAUGUAGCUAGACGUGCGCGCGGCGCUCGUCAGACUACCAGUAG [salish99_TOv1_r3_093] (Eterna round: R96, puzzle: Sensor v3, turn-off variant 1)
apparent KD of MS2 coat protein (input ligand: FMN 200 uM): 499 nM | apparent KD of MS2 coat protein [1]: 250 nM | apparent KD of MS2 coat protein (input ligand: none): 364 nM

AACAUACAUGAGGAUCACCCAUGUGAGGAUAUGAGAGUCAACUCGAGAGAGUUGAUUCUCAGAAGGCACAUAAA [JR_Ex1_Sub065] (Eterna round: R97, puzzle: Exclusion 1)
apparent KD of MS2 coat protein (input ligand: FMN 200 uM): 226 nM | apparent KD of MS2 coat protein (input ligand: none): 67.5 nM

AACCCUCGUCAAGGAUAUACAUAGAAAAGCUUGGUAGAAGGUGACAUGAGGAUCACCCAUGUAUAAAGUUCGUCCAAUCGAACC [Diesisra] (Eterna round: R96, puzzle: Exclusion NG 1)
apparent KD of MS2 coat protein (input ligand: FMN 200 uM): 139 nM | apparent KD of MS2 coat protein [1]: 80.9 nM | apparent KD of MS2 coat protein (input ligand: none): 110 nM

AUAAUUAAUCGAGGAUAUCAGCACGUGUAGUGCUGAGAAGGCGACAUGAGGAUCACCCAUGUGAUCAAUUAAUAUUAAUAUUAU [ENG1/11-C3] (Eterna round: R96, puzzle: Exclusion NG 1)
apparent KD of MS2 coat protein (input ligand: FMN 200 uM): 1330 nM | apparent KD of MS2 coat protein [1]: 565 nM | apparent KD of MS2 coat protein (input ligand: none): 866 nM

UUAAUGUGAGGAUAUGGUAAAGAUAAGAUGAUGAAAGAACUCCAGAAGGCACAUGAGGAUCACCCAUGUAGAUG [JL-ex4-2.14 Jieux mod] (puzzle: Exclusion 4)
apparent KD of MS2 coat protein [2]: 35.6 nM

UAAGUUUAGGUAGGAUAUACUUUCAAUUUCUCUUUCCUUACAUGAGGAUCACCCAUGUUUACAUUGUAGAAGGACCACUAUGUU [JR_ExcNG2_Sub054] (Eterna round: R96, puzzle: Exclusion NG 2)
apparent KD of MS2 coat protein [1]: 20.5 nM

AUUGUUUGAUACCUCUAAUACAUGAGGAUCACCCAUGUUAUCGAGGAUAUGCAUUAGAGUGGAUAGCAGAAGGCGAAGUAAUUG [JR_ExcNG3_Sub029] (Eterna round: R96, puzzle: Exclusion NG 3)
apparent KD of MS2 coat protein (input ligand: FMN 200 uM): 13.7 nM | apparent KD of MS2 coat protein [1]: 13.4 nM | apparent KD of MS2 coat protein (input ligand: none): 16.5 nM

AGCAUGUAAGGAUAUGCAAGUGGCACGGAUAGUACCAGAAAGCAGAAGGUACAUGAGGAUCACCCAUGUGCUCC [Anenen] (Eterna round: R96, puzzle: Exclusion 4)
apparent KD of MS2 coat protein (input ligand: FMN 200 uM): 233 nM | apparent KD of MS2 coat protein [1]: 67.2 nM | apparent KD of MS2 coat protein (input ligand: none): 80.1 nM

AUUAAACAUGUAGGAUAUGCGUGGCAAAGCUAUGCAGAAGGACAUGAGGAUCACCCAUGUAAAAGCGUCUGAGUACAGAUGCAA [Mat - Exclusion NG 1 - Mod of JL - D87] (Eterna round: R96, puzzle: Exclusion NG 1)
apparent KD of MS2 coat protein (input ligand: FMN 200 uM): 374 nM | apparent KD of MS2 coat protein [1]: 61.5 nM | apparent KD of MS2 coat protein (input ligand: none): 62.9 nM

UUGAUUCAUUCCUCCAUAAACAUGAGGAUCACCCAUGUAAGUGAGGAUAUAGUUUGUUUAGUAUACUAGAAGGCACUUAGAUAU [JR_ExcNG3_Sub046] (Eterna round: R96, puzzle: Exclusion NG 3)
apparent KD of MS2 coat protein (input ligand: FMN 200 uM): 12.7 nM | apparent KD of MS2 coat protein [1]: 9.61 nM | apparent KD of MS2 coat protein (input ligand: none): 12.6 nM
